{"source": "patent US11155602B2", "about": "“Polypeptides targeting HIV fusion” (priority 2015, dated 2021)"}
{"tested_on": "NL-Rluc virus", "assay": "Combinectin potency assay: antiviral EC50, NL-Rluc virus in MT-2 cells, luciferase readout", "type": "cell-based, HIV-1", "conditions": "Anti-N17 Adnectin, Table 3", "how_it_was_run": "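Peptides, serially diluted threefold over 11 points in triplicate, were exposed for 4–5 days to MT-2 cells preinfected 1 h with NL-Rluc virus (MOI 0.01). Replication read out as Renilla luciferase signal, with EC50 derived against untreated infected controls.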", "units": {"EC50": "nM"}}
{"molecule": "138 (protein, Adnectin) MGVSDVPRDLEVVAATPTSLLISWHYPFEGYVTYYRITYGETGGNSHVQEFTVPVGYTTATISGLKPGVDYTITVYAVTSSKGYVYFPISINYRTEIDKPSQHHHHHH", "EC50": 3300}
{"molecule": "136 (protein, Adnectin) MGHHHHHHGGSVSDVPRDLEVVAATPTSLLISWDAPAVTVEQYYIGYYVEAEPSSYQYFFVPGSKSTATISGLKPGVDYAIFVNAVTASGRGPEYSLPISINYRTEGS", "EC50": 5}
{"molecule": "137 (protein, Adnectin) MGVSDVPRDLEVVAATPTSLLISWHDGIGEERYYRITYGETGGNSPVQEFTVPMDDITATISGLKPGVDYTITVYAVTVGDVISVLHEPISINYRTEIDKPSQHHHHHH", "EC50": 80}
{"molecule": "332 (protein, Adnectin) MGHHHHHHGGSVSDVPRDLEVVAATPTSLLISWEYKVNRWRYYRITYGETGGNSPVQEFTVPSVLSTATISGLKPGVDYTITVYAVTYGDDSAPISINYRTEID", "EC50": "> 1000"}
{"molecule": "344 (protein, Adnectin) MGHHHHHHGGSVSDVPRDLEVVAATPTSLLISWEYKVHPYRYYRITYGETGGNSPVQEFTVPSVLSTATISGLKPGVDYTITVYAVTYGDDSEPISINYRTEID", "EC50": "> 1000"}
{"molecule": "348 (protein, Adnectin) MGHHHHHHGGSVSDVPRDLEVVAATPTSLLISWEYKVSTWRYYRITYGETGGNSPVQEFTVPSVLSTATISGLKPGVDYTITVYAVTYGDDSAPISINYRTEID", "EC50": "> 1000"}
{"molecule": "343 (protein, Adnectin) MGHHHHHHGGSVSDVPRDLEVVAATPTSLLISWEYKVHPYRYYRITYGETGGNSPVQEFTVPSVLSTATISGLKPGVDYTITVYAVTYGDHSAPISINYRTEID", "EC50": 122}
{"molecule": "361 (protein, Adnectin) MGHHHHHHGGSVSDVPRDLEVVAATPTSLLISWEYKVYHGRYYRITYGETGGNSPVQEFTVPSVLSTATISGLKPGVDYTITVYAVTYGDDSAPISINYRTEID", "EC50": "> 1000"}
{"molecule": "359 (protein, Adnectin) MGHHHHHHGGSVSDVPRDLEVVAATPTSLLISWEYKVSAYRYYRITYGETGGNSPVQEFTVPSVLSTATISGLKPGVDYTITVYAVTYGDDSAPISINYRTEID", "EC50": "> 1000"}
{"molecule": "338 (protein, Adnectin) MGHHHHHHGGSVSDVPRDLEVVAATPTSLLISWEYKVNRYRYYRITYGETGGNSPVQEFTVPSVLSTATISGLKPGVDYTITVYAVTYGDDSAPISINYRTEID", "EC50": "> 1000"}
{"molecule": "349 (protein, Adnectin) MGHHHHHHGGSVSDVPRDLEVVAATPTSLLISWEYKVYAYRYYRITYGETGGNSPVQEFTVPSVLSTATISGLKPGVDYTITVYAVTYGDDSAPISINYRTEID", "EC50": "> 1000"}
{"molecule": "354 (protein, Adnectin) MGHHHHHHGGSVSDVPRDLEVVAATPTSLLISWEYKVSAWRYYRITYGETGGNSPVQEFTVPSVLSTATISGLKPGVDYTITVYAVTYGDDSAPISINYRTEID", "EC50": "> 1000"}
{"molecule": "334 (protein, Adnectin) MGHHHHHHGGSVSDVPRDLEVVAATPTSLLISWEYKVTYRRYYRITYGETGGNSPVQEFTVPSVLSTATISGLKPGVDYTITVYAVTYGDDSAPISINYRTEID", "EC50": "> 1000"}
{"molecule": "363 (protein, Adnectin) MGHHHHHHGGSVSDVPRDLEVVAATPTSLLISWEYKVHPYRYYRITYGETGGNSPVQEFTVPSVLSTATISGLKPGVDYTITVYAVTYGNDSAPISINYRTEID", "EC50": 130}
{"molecule": "346 (protein, Adnectin) MGHHHHHHGGSVSDVPRDLEVVAATPTSLLISWEYKVHPYRYYRITYGETGGNSPVQEFTVPSVLSTATISGLKPGVDYTITVYAVTYGDDSAPISIQYRTEID", "EC50": 83}
{"molecule": "352 (protein, Adnectin) MGHHHHHHGGSVSDVPRDLEVVAATPTSLLISWEYKVHPYRYYRITYGETGGNSPVQEFTVPSVLSTATISGLKPGVDYTITVYAVTYGDLSAPISINYRTEID", "EC50": 77}
{"molecule": "345 (protein, Adnectin) MGHHHHHHGGSVSDVPRDLEVVAATPTSLLISWEYKVHPYRYYRITYGETGGNSPVQEFTVPSVLSTATISGLKPGVDYTITVYAVTYGDDSRPISINYRTEID", "EC50": "> 1000"}
{"molecule": "350 (protein, Adnectin) MGHHHHHHGGSVSDVPRDLEVVAATPTSLLISWEYKVHPYRYYRITYGETGGNSPVQTFTVPSVLSTATISGLKPGVDYTITVYAVTYGDDSAPISINYRTEID", "EC50": 191}
{"molecule": "335 (protein, Adnectin) MGHHHHHHGGSVSDVPRDLEVVAATPTSLLISWEYKVHPYRYYRITYGETGGNSPVQEFTVPSVLSTATISGLKPGVDYTITVYAVTYGDESAPISINYRTEID", "EC50": 112}
{"molecule": "333 (protein, Adnectin) MGHHHHHHGGSVSDVPRDLEVVAATPTSLLISWEYKVSPWRYYRITYGETGGNSPVQEFTVPSVLSTATISGLKPGVDYTITVYAVTYGDDSAPISINYRTEID", "EC50": "> 1000"}
{"molecule": "362 (protein, Adnectin) MGHHHHHHGGSVSDVPRDLEVVAATPTSLLISWEYKVHPYRYYRITYGETGGNSPVQEFTVPSVLSTAKLSGLKPGVDYTITVYAVTYGDDSAPISINYRTEID", "EC50": 121}
{"molecule": "337 (protein, Adnectin) MGHHHHHHGGSVSDVPRDLEVVAATPTSLLISWEYKVHPYRYYRITYGETGGNSPVQEFTVPSVLSTATISGLKPGVDYTITVYAVTYGDDSYPISINYRTEID", "EC50": "> 1000"}
{"molecule": "357 (protein, Adnectin) MGHHHHHHGGSVSDVPRDLEVVAATPTSLLISWEYKVHPYRYYRITYGETGGNSPVQEFTVPSVLSTATISGLKPGVDYTITVYAVTYGDLSAPISINYRTEID", "EC50": 178}
{"molecule": "339 (protein, Adnectin) MGHHHHHHGGSVSDVPRDLEVVAATPTSLLISWEYKVSRWRYYRITYGETGGNSPVQEFTVPSVLSTATISGLKPGVDYTITVYAVTYGDDSAPISINYRTEID", "EC50": "> 1000"}
{"molecule": "336 (protein, Adnectin) MGHHHHHHGGSVSDVPRDLEVVAATPTSLLISWEYKVHPYRYYRITYGETGGNSPVQEFTVPSVLSTATISGLKPGVDYTITVYAVTYGDDSDPISINYRTEID", "EC50": 171}
{"molecule": "351 (protein, Adnectin) MGHHHHHHGGSVSDVPRDLEVVAATPTSLLISWEYKVHPYRYYRITYGETGGNSPVQAFTVPSVLSTATISGLKPGVDYTITVYAVTYGKDSAPISINYRTEID", "EC50": 215}
{"molecule": "358 (protein, Adnectin) MGHHHHHHGGSVSDVPRDLEVVAATPTSLLISWEYKVHPYRYYRITYGETGGNSPVQEFTVPSVLSTATISGLKPGVDYTITVYAVTYGDDSTPISINYRTEID", "EC50": "> 1000"}
{"molecule": "342 (protein, Adnectin) MGHHHHHHGGSVSDVPRDLEVVAATPTSLLISWEYKVHPYRYYRITYGETGGNSPVQEFTVPSVLSTATISGLKPGVDYTITVYAVTYGIDSAPISINYRTEID", "EC50": "> 1000"}
{"molecule": "360 (protein, Adnectin) MGHHHHHHGGSVSDVPRDLEVVAATPTSLLISWEYKVTGYRYYRITYGETGGNSPVQEFTVPSVLSTATISGLKPGVDYTITVYAVTYGDDSAPISINYRTEID", "EC50": "> 1000"}
{"molecule": "353 (protein, Adnectin) MGHHHHHHGGSVSDVPRDLEVVAATPTSLLISWEYKVHPYRYYRITYGETGGNSPVQEFTVPSVLSTATISGLKPGVDYTITVYAVTYGDDSGPISINYRTEID", "EC50": 19}
{"molecule": "341 (protein, Adnectin) MGHHHHHHGGSVSDVPRDLEVVAATPTSLLISWEYKVHPYRYYRITYGETGGNSPVQSFTVPSVLSTATISGLKPGVDYTITVYAVTYGDDSAPISINYRTEID", "EC50": "> 1000"}
{"molecule": "347 (protein, Adnectin) MGHHHHHHGGSVSDVPRDLEVVAATPTSLLISWEYKVNYRRYYRITYGETGGNSPVQEFTVPSVLSTATISGLKPGVDYTITVYAVTYGDDSAPISINYRTEID", "EC50": "> 1000"}
{"molecule": "355 (protein, Adnectin) MGHHHHHHGGSVSDVPRDLEVVAATPTSLLISWEYKVSTYRYYRITYGETGGNSPVQEFTVPSVLSTATISGLKPGVDYTITVYAVTYGDDSAPISINYRTEID", "EC50": "> 1000"}
{"molecule": "356 (protein, Adnectin) MGHHHHHHGGSVSDVPRDLEVVAATPTSLLISWEYKVHPYRYYRITYGETGGNSPVQEFTVPSVLSTAELSGLKPGVDYTITVYAVTYGDDSAPISINYRTEID", "EC50": 31}
